This note sets out measurements from PMC7973133, “Escherichia coli FabG 3-ketoacyl-ACP reductase proteins lacking the assigned catalytic triad residues are active enzymes” (The Journal of Biological Chemistry, 2021).

Data set [1] has as its target T1, E. coli FabG (3-ketoacyl-ACP reductase) (Escherichia coli, UniProt P0AEK2).
T1 construct: homotetramer
T1 sequence (P0AEK2 1-244): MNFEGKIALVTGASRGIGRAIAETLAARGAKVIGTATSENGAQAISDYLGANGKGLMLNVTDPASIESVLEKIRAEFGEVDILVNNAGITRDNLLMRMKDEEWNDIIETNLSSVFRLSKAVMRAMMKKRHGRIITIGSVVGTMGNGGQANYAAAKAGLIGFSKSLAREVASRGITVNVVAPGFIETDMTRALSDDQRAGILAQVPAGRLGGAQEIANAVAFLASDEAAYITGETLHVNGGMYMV
The data set is described as follows: fluorescence titration. The data set is classed as binding. From the text: (§1) fluorescence titration on E. coli FabG (3-ketoacyl-ACP reductase) | wildtype FabG and mutant proteins S138A and Y151F could bind NADPH with Kd values

In data set [2] the target is T2, E. coli FabG (3-ketoacyl-ACP reductase) (Escherichia coli, UniProt P0AEK2, S138A).
T2 construct: homotetramer
The data set is described as follows: fluorescence titration. The class given is binding.
Source text: as §1

For data set [3], the target named is T3, E. coli FabG (3-ketoacyl-ACP reductase) (Escherichia coli, UniProt P0AEK2, Y151F).
T3 construct: homotetramer
Briefly: fluorescence titration. The data set is classed as binding.
Source text: as §1

Substrate in the data set “purified protein”: NC(=O)C1=CN([C@@H]2O[C@H](COP(=O)(O)OP(=O)(O)OC[C@H]3O[C@@H](n4cnc5c(N)ncnc54)[C@H](OP(=O)(O)O)[C@@H]3O)[C@@H](O)[C@H]2O)C=CC1
The data set is described as follows: purified protein. The class given is biochemical, Escherichia coli. Conditions: acetoacetyl-ACP generated in situ (100 μM ACP, 500 μM malonyl-CoA, 500 μM acetyl-CoA, FabD, FabH), 0.1 M sodium phosphate pH 7.0, varied: cofactor.

As for `NC(=O)C1=CN([C@@H]2O[C@H](COP(=O)(O)OP(=O)(O)OC[C@H]3O[C@@H](n4cnc5c(N)ncnc54)[C@H](OP(=O)(O)O)[C@@H]3O)[C@@H](O)[C@H]2O)C=CC1` [NADPH], the figures for the Kd in data set [1], in data set [2] and in data set [3] were 13.2 µM, 13.9 µM and 15.8 µM, respectively.

B1: E. coli FabG (3-ketoacyl-ACP reductase) (Escherichia coli K-12) (protein)
chain: MNFEGKIALVTGASRGIGRAIAETLAARGAKVIGTATSENGAQAISDYLGANGKGLMLNVTDPASIESVLEKIRAEFGEVDILVNNAGITRDNLLMRMKDEEWNDIIETNLSSVFRLSKAVMRAMMKKRHGRIITIGSVVGTMGNGGQANYAAAKAGLIGFSKSLAREVASRGITVNVVAPGFIETDMTRALSDDQRAGILAQVPAGRLGGAQEIANAVAFLASDEAAYITGETLHVNGGMYMV
notes: homotetramer
As for B1, the Km in “purified protein” came to 99.22 µM.

B2: E. coli FabG (3-ketoacyl-ACP reductase) (Escherichia coli K-12; S138A) (protein)
chain: MNFEGKIALVTGASRGIGRAIAETLAARGAKVIGTATSENGAQAISDYLGANGKGLMLNVTDPASIESVLEKIRAEFGEVDILVNNAGITRDNLLMRMKDEEWNDIIETNLSSVFRLSKAVMRAMMKKRHGRIITIGAVVGTMGNGGQANYAAAKAGLIGFSKSLAREVASRGITVNVVAPGFIETDMTRALSDDQRAGILAQVPAGRLGGAQEIANAVAFLASDEAAYITGETLHVNGGMYMV
notes: homotetramer
As for B2, the Km in “purified protein” amounted to 101.47 µM.

B3: E. coli FabG (3-ketoacyl-ACP reductase) (Escherichia coli K-12; Y151F) (protein)
chain: MNFEGKIALVTGASRGIGRAIAETLAARGAKVIGTATSENGAQAISDYLGANGKGLMLNVTDPASIESVLEKIRAEFGEVDILVNNAGITRDNLLMRMKDEEWNDIIETNLSSVFRLSKAVMRAMMKKRHGRIITIGSVVGTMGNGGQANFAAAKAGLIGFSKSLAREVASRGITVNVVAPGFIETDMTRALSDDQRAGILAQVPAGRLGGAQEIANAVAFLASDEAAYITGETLHVNGGMYMV
notes: homotetramer
Turning to B3, the Km in “purified protein” is 147.72 µM.

B4: E. coli FabG (3-ketoacyl-ACP reductase) (Escherichia coli K-12; K155A) (protein)
chain: MNFEGKIALVTGASRGIGRAIAETLAARGAKVIGTATSENGAQAISDYLGANGKGLMLNVTDPASIESVLEKIRAEFGEVDILVNNAGITRDNLLMRMKDEEWNDIIETNLSSVFRLSKAVMRAMMKKRHGRIITIGSVVGTMGNGGQANYAAAAAGLIGFSKSLAREVASRGITVNVVAPGFIETDMTRALSDDQRAGILAQVPAGRLGGAQEIANAVAFLASDEAAYITGETLHVNGGMYMV
notes: homotetramer
With B4, the Km in the data set “purified protein” turned out to be 166.45 µM.
